Results: PMC8591511, “Flexible open conformation of the AP-3 complex explains its role in cargo recruitment at the Golgi” (The Journal of Biological Chemistry, 2021)
Each block holds one binder with its values, some of them ahead of it.

Experiments:
[1] = biological target: T1, GFP-tagged AP-3 complex (Apl6 tagged C-terminally with mGFP) (S. cerevisiae, UniProt Q08951 1-932; P46682 1-809; P38153 1-483; P47064 1-194); experiment: single-molecule TIRF microscopy on polymer-supported membranes; polymer-supported membranes (Golgi mixture with 1 mol% PI4P) with or without Arf1 (10 nM), Sec7ΔC (10 nM) and 400 μM GTPγS, or reconstituted Vam3; GFP-tagged AP-3 (2 nM) labelled with anti-GFP nanobody-Dy647; room temperature; monitored 45 min; conditions: both partners purified
T1 construct: Apl5, δ-subunit of the yeast AP-3 complex; Apl6, β3-subunit of the yeast AP-3 complex; Apm3, μ3-subunit of the yeast AP-3 complex; Aps3, σ-subunit of the yeast AP-3 complex; also called GFP-AP-3; source: yeast strain with Apl6 fused to GFP, purified; labelled via anti-GFP nanobody carrying DY647 or Alexa Fluor 568; not shown: mGFP, C-terminal, kept; copies: + + +

[2] = biological target: T1, GFP-tagged AP-3 complex (Apl6 tagged …); experiment: single-molecule tracking of cargo mobility (TIRF microscopy); labelled Vam3 in polymer-supported membranes tracked before and after the addition of AP-3; without Arf1 and Sec7; conditions: both partners purified

T1 sequence (Q08951 whole entry, chain 1 of 4, the tested form may be a part): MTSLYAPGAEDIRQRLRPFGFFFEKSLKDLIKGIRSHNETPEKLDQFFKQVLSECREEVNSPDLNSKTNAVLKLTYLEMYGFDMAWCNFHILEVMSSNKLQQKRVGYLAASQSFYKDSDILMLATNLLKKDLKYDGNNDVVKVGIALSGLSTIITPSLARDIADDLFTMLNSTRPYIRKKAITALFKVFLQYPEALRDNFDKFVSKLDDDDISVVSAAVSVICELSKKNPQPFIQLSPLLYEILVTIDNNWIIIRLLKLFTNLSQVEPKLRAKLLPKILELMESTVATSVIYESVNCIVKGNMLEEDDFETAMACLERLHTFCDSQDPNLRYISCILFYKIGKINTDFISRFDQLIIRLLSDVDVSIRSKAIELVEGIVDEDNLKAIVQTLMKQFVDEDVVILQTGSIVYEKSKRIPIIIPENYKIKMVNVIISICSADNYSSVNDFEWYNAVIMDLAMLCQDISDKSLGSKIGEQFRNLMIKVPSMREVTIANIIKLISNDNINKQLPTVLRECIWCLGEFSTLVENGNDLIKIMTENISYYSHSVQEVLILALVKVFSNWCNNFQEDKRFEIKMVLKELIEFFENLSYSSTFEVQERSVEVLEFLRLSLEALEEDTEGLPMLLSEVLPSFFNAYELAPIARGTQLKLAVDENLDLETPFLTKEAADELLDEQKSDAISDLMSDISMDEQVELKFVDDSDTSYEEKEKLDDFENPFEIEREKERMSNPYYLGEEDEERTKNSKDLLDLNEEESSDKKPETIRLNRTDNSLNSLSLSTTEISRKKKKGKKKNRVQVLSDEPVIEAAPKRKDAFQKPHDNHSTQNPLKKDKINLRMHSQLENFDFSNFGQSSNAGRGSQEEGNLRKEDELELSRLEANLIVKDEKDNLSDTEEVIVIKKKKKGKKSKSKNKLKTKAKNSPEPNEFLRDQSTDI
T1 sequence (P46682 whole entry, chain 2 of 4, the tested form may be a part): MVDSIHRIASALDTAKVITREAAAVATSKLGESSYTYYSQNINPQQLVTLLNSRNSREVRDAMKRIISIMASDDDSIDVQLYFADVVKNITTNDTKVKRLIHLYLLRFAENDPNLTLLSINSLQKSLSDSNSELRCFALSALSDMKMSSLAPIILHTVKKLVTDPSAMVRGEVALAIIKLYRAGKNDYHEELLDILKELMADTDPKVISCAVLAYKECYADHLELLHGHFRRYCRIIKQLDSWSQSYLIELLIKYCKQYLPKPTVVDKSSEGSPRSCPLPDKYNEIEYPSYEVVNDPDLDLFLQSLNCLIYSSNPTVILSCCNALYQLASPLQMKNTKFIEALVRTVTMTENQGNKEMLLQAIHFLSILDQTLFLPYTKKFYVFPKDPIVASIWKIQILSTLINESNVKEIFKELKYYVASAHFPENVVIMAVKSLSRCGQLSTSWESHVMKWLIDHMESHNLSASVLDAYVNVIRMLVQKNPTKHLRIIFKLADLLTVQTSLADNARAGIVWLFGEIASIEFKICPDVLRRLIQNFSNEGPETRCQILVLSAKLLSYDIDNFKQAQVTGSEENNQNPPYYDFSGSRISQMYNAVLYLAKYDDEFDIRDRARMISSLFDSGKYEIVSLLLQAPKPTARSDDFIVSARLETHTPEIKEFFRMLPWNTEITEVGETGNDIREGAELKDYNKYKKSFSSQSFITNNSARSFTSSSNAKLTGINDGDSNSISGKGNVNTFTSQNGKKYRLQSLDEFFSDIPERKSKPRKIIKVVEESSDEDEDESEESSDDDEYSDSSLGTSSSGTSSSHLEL
T1 sequence (P38153 whole entry, chain 3 of 4, the tested form may be a part): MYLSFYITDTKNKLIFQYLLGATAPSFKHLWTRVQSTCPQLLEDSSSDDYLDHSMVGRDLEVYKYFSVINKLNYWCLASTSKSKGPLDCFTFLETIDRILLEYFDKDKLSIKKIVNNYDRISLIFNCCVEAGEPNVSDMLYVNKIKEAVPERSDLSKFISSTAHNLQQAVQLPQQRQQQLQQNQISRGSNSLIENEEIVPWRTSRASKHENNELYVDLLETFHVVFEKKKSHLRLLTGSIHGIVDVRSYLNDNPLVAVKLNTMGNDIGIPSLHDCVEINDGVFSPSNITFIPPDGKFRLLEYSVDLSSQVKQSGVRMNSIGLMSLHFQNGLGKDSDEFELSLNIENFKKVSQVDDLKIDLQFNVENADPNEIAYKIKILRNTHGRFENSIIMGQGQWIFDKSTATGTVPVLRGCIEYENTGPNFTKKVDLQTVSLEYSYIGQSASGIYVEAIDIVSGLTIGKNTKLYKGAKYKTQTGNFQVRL
T1 sequence (P47064 whole entry, chain 4 of 4, the tested form may be a part): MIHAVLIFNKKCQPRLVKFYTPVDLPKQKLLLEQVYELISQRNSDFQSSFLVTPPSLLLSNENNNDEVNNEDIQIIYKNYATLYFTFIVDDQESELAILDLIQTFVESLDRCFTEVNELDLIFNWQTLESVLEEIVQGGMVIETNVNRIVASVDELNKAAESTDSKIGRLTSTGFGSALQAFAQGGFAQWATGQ

binding result [1]: binds
B1: Vam3 (yeast vacuolar SNARE, AP-3 cargo with dileucine motif) (natural protein, UniProt Q12241 1-283, looked up)
chain: MSFFDIEAQSSKGNSQQEPQFSTNQKTKELSNLIETFAEQSRVLEKECTKIGSKRDSKELRYKIETELIPNCTSVRDKIESNILIHQNGKLSADFKNLKTKYQSLQQSYNQRKSLFPLKTPISPGTSKERKDIHPRTEAVRQDPESSYISIKVNEQSPLLHNEGQHQLQLQEEQEQQQQGLSQEELDFQTIIHQERSQQIGRIHTAVQEVNAIFHQLGSLVKEQGEQVTTIDENISHLHDNMQNANKQLTRADQHQRDRNKCGKVTLIIIIVVCMVVLLAVLS
notes: Vam3, yeast SNARE; transmembrane domain aa 263–283; source: reconstituted into proteoliposomes or polymer-supported membranes

binding result [2]: binds
B2: Vam3 labelled with Atto 647N (natural protein, yeast, UniProt Q12241 1-283, looked up)
chain: B1 chain
modifications: Atto 647N (Maleimide)
notes: Vam3, yeast SNARE; also called prelabeled transmembrane cargo; source: reconstituted into polymer-supported membranes
